Experimental data reported in publication doi:10.1101/2022.09.29.510028 (bioRxiv, 2022).
Where “and” joins values, the source holds several entries; their conditions need not be identical. Equal entries are not always repeated. Where two headings read alike, the source gives them in different places.

B1: NPM1_(188) (NTD and the acidic regions of the IDR, residues 1-188) (domain or fragment)
chain: MEDSMDMDMSPLRPQNYLFGCELKADKDYHFKVDNDENEHQLSLRTVSLGAGAKDELHIVEAEAMNYEGSPIKVTLATLKMSVQPTVSLGGFEITPPVVLRLKCGSGPVHISGQHLVAVEEDAESEDEEEEDVKLLSISGKRSAPGGGSKVPQKKVKLAADEDDDDDDEEDDDEDDDDDDFDDEEAEE
B2: NPM1_(ΔIDR) (NTD and CTD linked without the IDR) (other)
chain: MEDSMDMDMSPLRPQNYLFGCELKADKDYHFKVDNDENEHQLSLRTVSLGAGAKDELHIVEAEAMNYEGSPIKVTLATLKMSVQPTVSLGGFEITPPVVLRLKCGSGPVHISGQHLVAVEPSSVEDIKAKMQASIEKGGSLPKVEAKFINYVKNCFRMTDQEAIQDLWQWRKSL
B3: NPM1_(120) (N-terminal domain, residues 1-120) (domain or fragment)
chain: MEDSMDMDMSPLRPQNYLFGCELKADKDYHFKVDNDENEHQLSLRTVSLGAGAKDELHIVEAEAMNYEGSPIKVTLATLKMSVQPTVSLGGFEITPPVVLRLKCGSGPVHISGQHLVAVE

Key:
Test in all cases: native MS
[1] = target: B3
[2] = target: Nucleophosmin 1, full-length (FL NPM1) (human)
native MS [3] = target: the molecule itself
native MS [4] = target: the molecule itself; remark: listed apart in the source

RRRREGKTDYYARKRLV [rpL5_(21-37) (residues 21-37 of ribosomal protein L5)]
binding result [1]: binds
binding result [2]: binds

B1
stoichiometry N (native MS [3]): 5 and 10

B2
stoichiometry N (native MS [3]): 10 and 5

B3
stoichiometry N (native MS [4]): ≥ 25 subunits
